Laboratory results as given in US9809627B2, “Cyclized transthyretin peptide and methods of use therefor” (Wisconsin Alumni Research Foundation, priority 2014, dated 2017).
Where no end group is shown, it is not given here. [ ]: non-standard residue; d: D form.

Assays:
Aβ (1-40) [1] = molecular target: T1, Aβ (1-40) (Homo sapiens, UniProt P05067); experiment: Photoinduced cross-linking (PICUP) of Aβ and peptides; format: binding
T1 construct: Aβ (1-40) was purchased from Anaspec, Inc. (Fremont, Calif.) as lyophilized powder; purchased Anaspec, Inc. (Fremont, Calif.)
Experimental: (§1) Aβ (1-40) was purchased from Anaspec, Inc. (Fremont, Calif.) as lyophilized powder. For dynamic light scattering, ThT fluorescence assay, TEM, NTA measurement and filtration/sedimentation assay, Aβ was dissolved in 50% ACN, re-lyophilized, and reconstituted in 8M urea at 12 mg/mL. Aβ stock was then aliquoted, snap-frozen in ethanol with dry ice, and stored at −80° C. For PICUP and proteolytic fragmentation analysis, lyophilized Aβ was dissolved in prechilled hexafluoroisopropanol (HFIP, Acros Organics, Geel, Belgium), aliquoted, dried and stored at −20° C. as previously described (Cho et al., 2014). Aβ sample was prepared right before use by dissolving dried peptides in 50 mM NaOH and diluting into phosphate-buffered saline (PBSA) (10 mM Na2HPO4/NaH2PO4, 150 mM NaCL and 0.02% NaN3 (pH 7.4)) to 30 μM as previously described (Cho et al., 2014).
Aβ prepared with HFIP/NaOH treatment at 30 μM as described was mixed with peptides to a final concentration of 24 μM Aβ and 2.4 μM peptides. Aβ stock was used immediately (freshly prepared) or after incubation for 24 hr at 37° C. (1 day pre-aggregated). Samples of Aβ with and without peptides were incubated for 1 hr at 37° C. and cross-linked by photo-induced cross-linking method as previously described (Cho et al., 2014). Cross-linked samples were then separated on a 10-20% Tris-Tricine gradient gel (Iinvotrogen, Carlsbad, Calif.), transferred onto a 0.2 μm poly(vinylidene difluoride) (PVDF) membrane and detected by monoclonal mouse anti-Aβ antibody 4G8 (Covance, Princeton, N.J.) as previously described (Cho et al., 2014).

Aβ (1-40) [2] = molecular target: T1, Aβ (1-40); experiment: Filtration/sedimentation assay of Aβ aggregation; format: biochemical
Experimental: as §1
Aβ alone (30 μM) or with CG3 (3 μM) was prepared in PBSA and incubated for 24 hr at 37° C. For filtration, 175 μL of sample was filtered through 0.45 μm filter. For sedimentation, 100 μL of sample was transferred onto a separate tube and centrifuged for 30 min at 19,500 ref. The supernatant (80%) was removed. Concentrations of untreated, filtered, and centrifuged samples were measured by BCA assay (Pierce).

Aβ = molecular target: T2, Aβ (Homo sapiens, UniProt P05067); experiment: Enzyme-linked immunoassay of Aβ binding to immobilized CG3-biotin in presence of serum proteins; details: Aβ 1, 3 or 5 μg/mL in PBS with 10% or 30% FBS
T2 construct: Amyloid-beta (Aβ or Abeta) denotes peptides of 36-43 amino acids
Excerpt: Evidence of interaction between Aβ and peptide investigated by enzyme-linked immunoassay. CG3 was synthesized with an appending polyethylene glycol (PEG) linker attached to biotin. This was achieved by replacing Val at the 3rd position with Glu and on-column addition of PEG and biotin to the Glu side chain. […] After further washing, Aβ was detected using monoclonal anti-Aβ antibody and Superclonal-HRP. […] Open symbols/dashed lines are negative control (immobilized PEG-biotin linker).
Briefly, CG3 was synthesized with an appended flexible PEG linker and biotin. […] Aβ was prepared at 1, 3, or 5 μg/mL in PBS, or in PBS containing 10 (vol/vol) % or 30 (vol/vol) % fetal bovine serum (FBS, charcoal-treated). […] Aβ solutions were added to the CG3-coated wells and then incubated to allow binding. After washing, Aβ was detected by anti-Aβ antibody (6E10 or 4G8) and Superclonal-HRP.

## SKVVT^DPPRYTIAALLSPYSYSQ [CG3] (chain 1 SKVVT[dP]PRYTIAALLSPYSYSQ; chain 2 SKVVT[dP]PRYTIAALLSPYSYSQ; also: head-to-tail to a chain's N/C-terminus) [cyclic 22-mer of TTR residues 104-123 grafted onto DPro-Pro template]
Aβ (1-40) [1]; freshly prepared or 1 day pre-aggregated Aβ
  interaction with freshly prepared versus pre-aggregated Aβ: much less interaction with freshly prepared Aβ than with pre-aggregated Aβ
Aβ (1-40) [1]; pre-aggregated Aβ, 10:1 molar excess of Aβ, Western blot 4G8
  interaction with Aβ (shift in cross-linked Aβ size distribution): interact with Aβ
Aβ (1-40) [2]
  effect on fraction of Aβ aggregates removable by filtration or sedimentation: reduce the fraction of Aβ aggregates that can be removed by filtration or sedimentation
Aβ (1-40) [2]; 30 μM Aβ, 10:1 Aβ excess, at either 0 or 24 hours, 37° C.
  fraction of Aβ-peptide mixture filterable through 0.45 μm filter: about 90%
Aβ (1-40) [2]; after 24 hours, centrifuged 30 min, supernatant
  fraction of Aβ-peptide mixture remaining in solution after centrifugation: 91%
Aβ
  binding of Aβ to immobilized peptide: serum proteins do not interfere with Aβ binding
